Results reported in the supplement of paper PMC7877785.
± gives the uncertainty stated by the source.

Assay: self-splicing fitness, log relative to wild type (ln ratio); higher = more splicing; Tetrahymena group I intron in knt gene, E. coli kanamycin selection, DiMSum; sequences stand for … in CUCUCU…GGAGGGAAAAGUUAUCAGGCAUGCACCUGGUAGCUAGUCUUUAAACCAAUAGAUUGCAUCGGUUUAAAAGGCAAGACCGUCAAAUUGCGGGAAAGGGGUCAACAGCCGUUCAGUACCAAGUCUCAGGGGAAACUUUGAGAUGGCCUUGCAAAGGGUAUGGUAAUAAGCUGACGGACAUGGUCCUAACCACGCAGCCAAGUCCUAAGUCAACAGAUCUUCUGUUGAUAUGGAUGCAGUUCACAGACUAAAUGUCGGUCGGGGAAGAUGUAUUCUUCUCAUAAGAUAUAGUCGGACCUCUCCUUAAUGGGAGCUAGCGGAUGAAGUGAUGCAACACUGGAGCCGCUGGGAACUAAUUUGUAUGCGAAAGUAUAUUGAUUAGUUUUGGAGUACUCGUGGUCG
Method in brief: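 A randomised library covering all eight P1ex-region intron nucleotides was built with the intron in the knt kanamycin-resistance gene on pET-22b(+) and held in E. coli BL21(DE3). Cells were grown overnight at 37°C or 30°C on LB agar, with or without 25 μg/mL kanamycin, plus 100 μg/mL carbenicillin, 50 μM IPTG and 0.2% rhamnose, and pooled colonies were amplicon-sequenced on an Illumina HiSeq 2500. DiMSum fitness is the error-weighted combination of wild-type-normalised replicate fold changes, kanamycin versus none.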

| Sequence | self-splicing fitness (ln) (30 °C) | self-splicing fitness (ln) (37 °C) |
| --- | --- | --- |
| UAUCAGCAAUAUUACGGCUA | 0.13 ± 0.085 | 0.848 ± 0.12 |
| UAUCAGCAAUAUUACGGGAA | -1.65 ± 0.1 | -0.124 ± 0.11 |
| UAUCAGCAAUAUUACGGGGU | -3.6 ± 0.2 | -2.48 ± 0.17 |
| UAUCAGCAAUAUUACGGUAA | -0.552 ± 0.13 | -0.308 ± 0.11 |
| UAUCAGCAAUAUUACGGUCG | -0.0229 ± 0.059 | 0.259 ± 0.066 |
| UAUCAGCAAUAUUACGUACU | -1.57 ± 0.089 | -0.383 ± 0.1 |
| UAUCAGCAAUAUUACGUCAU | -1.88 ± 0.13 | -1.42 ± 0.15 |
| UAUCAGCAAUAUUACGUCUG | -0.947 ± 0.076 | -0.205 ± 0.1 |
| UAUCAGCAAUAUUACGUGCA | -0.589 ± 0.054 | 0.447 ± 0.078 |
| UAUCAGCAAUAUUACGUGUC | -4.01 ± 0.17 | -1.79 ± 0.12 |
| UAUCAGCAAUAUUACGUUUU | -2.74 ± 0.084 | -1.4 ± 0.085 |
| UAUGAGCAAUAUUACGACAG | – | -1.78 ± 0.36 |
| UAUGAGCAAUAUUACGACUG | -1.23 ± 0.12 | -0.328 ± 0.14 |
| UAUGAGCAAUAUUACGAUAA | -3.74 ± 0.33 | -2.74 ± 0.27 |
| UAUGAGCAAUAUUACGCAUU | -3.57 ± 0.25 | -2.15 ± 0.22 |
| UAUGAGCAAUAUUACGCCAA | – | -2.51 ± 0.37 |
| UAUGAGCAAUAUUACGCCGA | -2.04 ± 0.34 | -1.73 ± 0.26 |
| UAUGAGCAAUAUUACGCCGC | -1.9 ± 0.31 | -1.02 ± 0.42 |
| UAUGAGCAAUAUUACGCGCU | -3.68 ± 0.31 | -2.64 ± 0.28 |
| UAUGAGCAAUAUUACGGACG | -2.79 ± 0.25 | -1.19 ± 0.23 |
| UAUGAGCAAUAUUACGGCGC | -3.47 ± 0.48 | -1.46 ± 0.29 |
| UAUGAGCAAUAUUACGGCUG | -1.01 ± 0.15 | -0.14 ± 0.19 |

| Sequence | self-splicing fitness (ln) (30 °C) | self-splicing fitness (ln) (37 °C) |
| --- | --- | --- |
| UAUGAGCAAUAUUACGGGCG | -2.75 ± 0.16 | -2.12 ± 0.2 |
| UAUGAGCAAUAUUACGGGCU | – | -1.8 ± 0.47 |
| UAUGAGCAAUAUUACGGGGU | -2.98 ± 0.21 | -2.2 ± 0.22 |
| UAUGAGCAAUAUUACGUCCA | -2.26 ± 0.26 | -2.86 ± 0.4 |
| UAUGAGCAAUAUUACGUGGG | -3.55 ± 0.25 | -3.94 ± 0.39 |
| UAUGAGCAAUAUUACGUGUC | -3.77 ± 0.28 | -3.2 ± 0.4 |
| UAUGAGCAAUAUUACGUUCA | -1.29 ± 0.2 | -0.652 ± 0.22 |
| UAUGAGCAAUAUUACGUUUU | -4.02 ± 0.32 | -2.45 ± 0.23 |
| UAUUAGCAAUAUUACGAAUG | -0.433 ± 0.082 | -0.322 ± 0.11 |
| UAUUAGCAAUAUUACGCAGA | -1.96 ± 0.28 | -1.63 ± 0.23 |
| UAUUAGCAAUAUUACGCCAG | -1.17 ± 0.28 | – |
| UAUUAGCAAUAUUACGCGGU | -3.62 ± 0.36 | -1.8 ± 0.37 |
| UAUUAGCAAUAUUACGCUAA | – | -1.1 ± 0.46 |
| UAUUAGCAAUAUUACGGACC | -1.51 ± 0.43 | – |
| UAUUAGCAAUAUUACGGAGG | -2.95 ± 0.28 | -1.84 ± 0.34 |
| UAUUAGCAAUAUUACGGCAA | -1.06 ± 0.14 | -0.784 ± 0.15 |
| UAUUAGCAAUAUUACGGCAU | -1.99 ± 0.16 | -0.541 ± 0.12 |
| UAUUAGCAAUAUUACGGCCU | -0.879 ± 0.21 | -0.611 ± 0.27 |
| UAUUAGCAAUAUUACGGCGC | -1.74 ± 0.13 | -0.453 ± 0.17 |
| UAUUAGCAAUAUUACGGCUC | -0.997 ± 0.4 | 0.595 ± 0.44 |
| UAUUAGCAAUAUUACGGCUU | -1.35 ± 0.13 | -0.478 ± 0.17 |
| UAUUAGCAAUAUUACGGGAA | -0.606 ± 0.27 | -1.45 ± 0.31 |
